Results on 22 sequences are retold here after the supplement of paper PMC9170038.

In the data set the test system is MS2 coat protein. As to the kind of experiment: apparent KD of MS2 coat protein; designed switch direction (-1 OFF switch, 1 ON switch): -1; higher = weaker reporter binding. The procedure, abridged:
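Three titration conditions were used: no input, 200 uM small-molecule ligand, and an oligonucleotide input. In each, SNAP-549-labelled MS2 coat protein was raised from 0.7 or 1.5 nM, doubling, to 3 µM over designed RNA switches transcribed on Illumina chips by stalled E. coli RNA polymerase. Curve fits of normalised cluster fluorescence gave values whose per-design median over clusters is the apparent KD.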

Where [1] appears, read: input ligand: microRNA oligo, concentration not stated.
The mark [2] stands for this setting: Eterna round: R95, input ligand: FMN 200 uM.
The mark [3] stands for this setting: Eterna round: R95, input ligand: microRNA oligo, concentration not stated.
Setting [4] is: Eterna round: R95, input ligand: none.

As to “UUCUCGACAUGAGGAUCACCCAUGUAGUGGGAGAAAACUGGUUAGGAUAUAAAAUAGUACACCGUUUAGAAGGGACCUAUCCUC [Eternabot solution 4] (Eterna round: R96, puzzle: Exclusion NG 3)”, the “apparent KD of MS2 coat protein” value (input ligand: FMN 200 uM) worked out at 79.2 nM, the “apparent KD of MS2 coat protein” value under setting [1] came to 45.7 nM and the “apparent KD of MS2 coat protein” value (input ligand: none) stood at 72.3 nM.

As to “UUGAUUCAUUCCUCUAUAAACAUGAGGAUCACCCAUGUAAGUGAGGAUAUAGUUGGAGUUGUAUACUAGAAGGCACUUAGUUUU [JR_ExcNG3_Sub048] (Eterna round: R96, puzzle: Exclusion NG 3)”, the “apparent KD of MS2 coat protein” value came to 26 nM (input ligand: FMN 200 uM), 8.29 nM under setting [1] and 13 nM (input ligand: none).

For “UUGCAGUCGUCAGGAUAUAGUAUUACGGCCUUUUAUUUUUUCAUACAUGAGGAUCACCCAUGUCGCUAGAAGGGAUUAUCGAUU [salish99_ExNG2_r04_104] (Eterna round: R96, puzzle: Exclusion NG 2)”, the “apparent KD of MS2 coat protein” value runs as follows: (input ligand: FMN 200 uM) 39.6 nM; under setting [1], 31.6 nM; (input ligand: none) 41.4 nM.

With “UUGCCACAUGAGGAUCACCCAUGUGAGGAUAUGGCCCGCCCGGCGUGUGCUGGUUCUGUCAGAAGGCGCGUGGG [salish99_ex1_r4_030] (Eterna round: R97, puzzle: Exclusion 1)”, the “apparent KD of MS2 coat protein” value is 73 nM (input ligand: FMN 200 uM) and 33.1 nM (input ligand: none).

“UUGCUUUCUUAGUACUCUAUAAGUUUUUUGUUCGUUUUAACAUGAGGAUCACCCAUGUCUAGUGGAUCUGAUCGGGU [JL ViennaUCT Isreen mod 7] (puzzle: Sensor v3, turn-off variant 2)”: the “apparent KD of MS2 coat protein” value runs as follows: under setting [2], 150 nM; under setting [3], 303 nM; under setting [4], 163 nM.

For the sequence “UUGGAACAUGAGGAUCACCCAUGUCAGGAUAUUCCAAAAUCGUCGAAAGACGAUAACAGAAGAAGGGACAUUAG [Fiskxlusion 9 - Jieux - Exclusion 1] (Eterna round: R97, puzzle: Exclusion 1)”, the “apparent KD of MS2 coat protein” value by setting is: (input ligand: FMN 200 uM) 124 nM; (input ligand: none) 80.2 nM.

As to “UUGUACCGGUGAGGAUAUCGUUGAUAGAACUUUAUGAUAUACAUGAGGAUCACCCAUGUUACUUUCGAGAAGGCAUCGGAUUAU [ExNG2 6th] (Eterna round: R96, puzzle: Exclusion NG 2)”, the “apparent KD of MS2 coat protein” value is, setting by setting: (input ligand: FMN 200 uM) 12.3 nM; under setting [1], 10.3 nM; (input ligand: none) 21.8 nM.

With “UUGUUACAUGAGGAUCACCCAUGUGAGGAUAUGGUUCAGUACUGUCAUGUCACGUACUCCAGAAGGCACAUGUU [1st #31] (Eterna round: R97, puzzle: Exclusion 1)”, the “apparent KD of MS2 coat protein” value stood at 363 nM (input ligand: FMN 200 uM) and 120 nM (input ligand: none).

For “UUGUUAUGUGUAGGAUAUGCAUAUUAUUAUUAUGCAGAAGGACAUGAGGAUCACCCAUGUAUAUUAUUAUUAUAUGUUAUAUAU [Title] (Eterna round: R96, puzzle: Exclusion NG 1)”, the “apparent KD of MS2 coat protein” value (input ligand: FMN 200 uM) stood at 29.3 nM, the “apparent KD of MS2 coat protein” value under setting [1] is 19 nM and the “apparent KD of MS2 coat protein” value (input ligand: none) stood at 22.8 nM.

Take “UUGUUAUGUGUAGGAUAUGCGUGUUAUUAUUAUGCAGAAGGACAUGAGGAUCACCCAUGUGUAUUGUUAUUAUAUAUUAUAUAU [Title] (Eterna round: R96, puzzle: Exclusion NG 1)”: the “apparent KD of MS2 coat protein” value reads like this: (input ligand: FMN 200 uM) 21 nM; under setting [1], 13.2 nM; (input ligand: none) 20.8 nM.

As to “UUGUUUUUUGAGGAUAUGCGACGUUUUUUCGUCGUAGAAGGCGAUACAUGAGGAUCACCCAUGUUUAUGGGCAU [LRO-Ex6-14] (puzzle: Exclusion 6)”, under setting [3], the “apparent KD of MS2 coat protein” value was 122 nM.

For “UUUAAGGGAAUUAAGAUCACAUGAGGAUCACCCAUGUAUAUAUAGGAUAUCAGCUCGAUUAGAGCUGAGAAGGAUAUAUACAUA [ExNG3/6-A1] (Eterna round: R96, puzzle: Exclusion NG 3)”, the “apparent KD of MS2 coat protein” value came to 126 nM (input ligand: FMN 200 uM), 79.7 nM under setting [1] and 165 nM (input ligand: none).

For “UUUAAUUGUCACAUGGGUGACAUGAGGAUCACCCAUGUCACAAGCUUUUUGCUCGUCUUAUAAUUAACCCAUGUGAC [Stov1/12-A1] (Eterna round: R97, puzzle: Sensor, turn-off variant 1)”, the “apparent KD of MS2 coat protein” value reads like this: (input ligand: FMN 200 uM) 13.4 nM; (input ligand: none) 13.7 nM.

Regarding “UUUAAUUGUCAGAUGGGUGACAUGAGGAUCACCCAUGUCACAAGCUUUUUGCUCGUCUUAUAAUUAACCCAUCUGAC [Stov1/11-A1] (Eterna round: R97, puzzle: Sensor, turn-off variant 1)”, the “apparent KD of MS2 coat protein” value by setting is: (input ligand: FMN 200 uM) 13.5 nM; (input ligand: none) 12.3 nM.

Turning to “UUUAAUUUAAUUAAGAUCACAUGAGGAUCACCCAUGUAAUUAUAGGAUAUCAGCUCGUGUAGAGCUGAGAAGGAUAAUUACAUA [ExNG3/5-A3] (Eterna round: R96, puzzle: Exclusion NG 3)”, the “apparent KD of MS2 coat protein” value runs as follows: (input ligand: FMN 200 uM) 81.9 nM; under setting [1], 58.2 nM; (input ligand: none) 72.7 nM.

Take “UUUAAUUUUUUUUUUUUACAAGCUUUUUGCUCGUCUUAUACAUGAGGAUCACCCAUGUGGGUAAAGGGUAAAUUAUC [JMF 80] (puzzle: Sensor v3, turn-off variant 2)”: the “apparent KD of MS2 coat protein” value runs as follows: under setting [2], 23 nM; under setting [3], 50.9 nM; under setting [4], 20.9 nM.

Regarding “UUUACAAGCUAUUGAUCCCACAUGAGGAUCACCCAUGUUCCUGGCCGUGAGGCUAGGUAAACAAUUGCUCGUCUUAU [JL TOV1 3.69] (Eterna round: R97, puzzle: Sensor, turn-off variant 1)”, the “apparent KD of MS2 coat protein” value (input ligand: FMN 200 uM) is 903 nM and the “apparent KD of MS2 coat protein” value (input ligand: none) is 1370 nM.

In the case of “UUUACAAGCUUAUGAUCCCACAUGAGGAUCACCCAUGUUGCUGCCGGUGACGGUAGCAUAACAUAUGCUCGUCUUAU [JL TOV1 3.57] (Eterna round: R97, puzzle: Sensor, turn-off variant 1)”, the “apparent KD of MS2 coat protein” value runs as follows: (input ligand: FMN 200 uM) 1570 nM; (input ligand: none) 1840 nM.

Take “UUUAGUUUAGGAUAUGUAGACAUUAACAUGAGGAUCACCCAUGUAGAUCCUGAAUUGGCUACAGAAGGAAGCAUUU [Mod of Brourd 11 - Jieux - Exclusion 5] (Eterna round: R97, puzzle: Exclusion 5)”: the “apparent KD of MS2 coat protein” value was 168 nM (input ligand: FMN 200 uM) and 354 nM (input ligand: none).

Consider “UUUAGUUUAGGAUAUGUAGAUUUUAACAUGAGGAUCACCCAUGUAGAUCCUGAAUUAACUACAGAAGGGAACAUUU [Mod of Brourd 14 - Jieux - Exclusion 5] (Eterna round: R97, puzzle: Exclusion 5)”, for which the “apparent KD of MS2 coat protein” value is 124 nM (input ligand: FMN 200 uM) and 154 nM (input ligand: none).

“UUUAUGUAAGGAUAUAUGGGUUUAAAUGAAAAUUUGGGCCCAUAGAAGGUACAUGAGGAUCACCCAUGUAGUGG [-24.4, -24.3 kcal, 32% A] (Eterna round: R97, puzzle: Exclusion 4)”: the “apparent KD of MS2 coat protein” value reads like this: (input ligand: FMN 200 uM) 474 nM; (input ligand: none) 641 nM.

As for “UUUCCACAUGAGGAUCACCCAUGUCAGGAUAUUAUAGUUGGCCGAAAGGCGUCAGUGGUAAGAAGGGACGUUGA [Eternabot (L2) Solution 46] (Eterna round: R97, puzzle: Exclusion 1)”, the “apparent KD of MS2 coat protein” value is, setting by setting: (input ligand: FMN 200 uM) 16.1 nM; (input ligand: none) 15.8 nM.
